Reference: patent US20190022211A1 (CELLTRION, published 2019)
Values joined by “and” are separate entries in the source; they are usually repeats but may differ in a detail not shown here. Equal entries are not always repeated.

Columns and labels:
Assay in all cases: cell-based or functional assay
[1] = target: G protein of rabies virus AL Bat (Bat, California, USA), on virus (rabies virus)
[2] = target: G protein of rabies virus AZ Bat (Bat, Arizona), on virus (rabies virus)
[3] = target: G protein of rabies virus Rv342 China (Cow/dog, China), on virus (rabies virus)
[4] = target: G protein of rabies virus AK FX (Arctic Fox, Alaska, USA), on virus (rabies virus)
[5] = target: G protein of rabies virus Gray FX-AZ (AZ fox) (Gray Fox, Arizona, USA), on virus (rabies virus)
[6] = target: G protein of rabies virus 323R (Dog/Coyote, Texas, USA), on virus (rabies virus)
[7] = target: G protein of rabies virus RVHN (Human (ex, wolf), Russia, Arctic), on virus (rabies virus)
[8] = target: G protein of rabies virus TN-269 (Bat, Tennessee, USA), on virus (rabies virus)
[9] = target: G protein of rabies virus TN410 (Bat, Tennessee, USA), on virus (rabies virus)
[10] = target: G protein of rabies virus Dog Arg (Dog, Argentina), on virus (rabies virus)
[11] = target: G protein of rabies virus Mongoose PR (Mongoose, Puerto-Rico), on virus (rabies virus)
[12] = target: G protein of rabies virus Sri Lanka (Cow, Sri Lanka), on virus (rabies virus)
[13] = target: G protein of rabies virus Dog thai (Dog, Thailand), on virus (rabies virus)
[14] = target: G protein of ABV (SM 4476) (Australian bat lyssa, Genotype 7), on virus (Australian bat lyssa, Genotype 7)
[15] = target: G protein of EBLV 2 A03-4659 (Genotype 6), on virus (EBLV 2, Genotype 6)
[16] = target: G protein of EBLV 1 A09-3485 (Genotype 5), on virus (EBLV 1, Genotype 5)
[17] = target: G protein of rabies virus Dog son (Dog, Mexico), on virus (rabies virus)
[18] = target: G protein of rabies virus C1434 (Bat, Alabama, USA), on virus (rabies virus)
[19] = target: G protein of rabies virus TN 132 (Bat, Tennessee, USA), on virus (rabies virus)
[20] = target: G protein of rabies virus TXFX (Gray fox, TX), on virus (rabies virus)
[21] = target: G protein of rabies virus LC NY (Bat, New York, USA), on virus (rabies virus)
[22] = target: G protein of rabies virus NC SK (Skunk, Wisconsin, USA), on virus (rabies virus)
[23] = target: G protein of rabies virus MI1625 (Bat, Tennessee, USA), on virus (rabies virus)
[24] = target: G protein of rabies virus Myotis (Bat, Washington, USA), on virus (rabies virus)
[25] = target: G protein of rabies virus Phi 002 (231) (Human/dog, Philippines), on virus (rabies virus)
[26] = target: T1, G protein of rabies virus ERA, on virus (rabies virus, UniProt P03524 20-524)
T1 sequence: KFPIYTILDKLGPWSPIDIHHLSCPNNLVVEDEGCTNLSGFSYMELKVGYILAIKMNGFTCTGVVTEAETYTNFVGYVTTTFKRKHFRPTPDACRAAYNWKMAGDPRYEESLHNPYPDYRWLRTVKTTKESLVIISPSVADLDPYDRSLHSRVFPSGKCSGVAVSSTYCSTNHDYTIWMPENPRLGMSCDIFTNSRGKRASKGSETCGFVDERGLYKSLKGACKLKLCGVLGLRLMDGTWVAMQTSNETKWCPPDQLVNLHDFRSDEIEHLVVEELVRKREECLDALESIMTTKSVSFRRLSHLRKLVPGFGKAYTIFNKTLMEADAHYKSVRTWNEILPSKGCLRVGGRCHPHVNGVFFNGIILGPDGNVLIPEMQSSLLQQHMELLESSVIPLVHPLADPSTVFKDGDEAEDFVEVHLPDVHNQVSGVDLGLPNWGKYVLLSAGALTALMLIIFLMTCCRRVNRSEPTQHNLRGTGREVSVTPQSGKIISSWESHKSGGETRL

[27] = target: G protein of rabies virus WA Bat (Bat, Washington, USA), on virus (rabies virus)

B1: antibody 1 (antibody, V domains shown)
VH: VQLLQESGPGLAKPSETLSLICTVSGGSISRRRDYWGWIRQPPGRGLEWIGSFFHRGSTYYNPSLESRVSISVDPSKNQFSLHLSSVTVADTAVYYCARHPSTPFAEYLLLPDAFDSWGQGTLVTVSS
VL: DIVMTQSPATLSVSPGERATLSCRASQSVRSSLAWYQQRPGQAPRLLISGASTRATDIPARLSGSGSGTEFTLTVSSLQSEDFAVYYCQQYSDWPLTFGGGTKVEIKR
neutralizing activity (RFFIT) [1]: 7.6 IU/mL and 7590 IU/mg | neutralizing activity (RFFIT), Titer [1]: 1100 | neutralizing activity (RFFIT) [2]: 1.1 IU/mL and 1090 IU/mg | neutralizing activity (RFFIT), Titer [2]: 125 | neutralizing activity (RFFIT) [3]: 0.5 IU/mL and 2540 IU/mg | neutralizing activity (RFFIT), Titer [3]: 280 | neutralizing activity (RFFIT) [4]: 0.44 IU/mL and 2220 IU/mg | neutralizing activity (RFFIT), Titer [4]: 60 | neutralizing activity (RFFIT) [5]: 0.53 IU/mL and 2670 IU/mg | neutralizing activity (RFFIT), Titer [5]: 16 | neutralizing activity (RFFIT) [6]: 0.33 IU/mL and 1670 IU/mg | neutralizing activity (RFFIT), Titer [6]: 60 | neutralizing activity (RFFIT) [7]: 0.4 IU/mL and 2000 IU/mg | neutralizing activity (RFFIT), Titer [7]: 54 | neutralizing activity (RFFIT) [8]: 1.16 IU/mL and 5800 IU/mg | neutralizing activity (RFFIT), Titer [8]: 145 | neutralizing activity (RFFIT) [9]: 0.51 IU/mL and 2530 IU/mg | neutralizing activity (RFFIT), Titer [9]: 19 | neutralizing activity (RFFIT) [10]: 0.36 IU/mL and 1810 IU/mg | neutralizing activity (RFFIT), Titer [10]: 145 | neutralizing activity (RFFIT) [11]: 0.39 IU/mL and 1930 IU/mg | neutralizing activity (RFFIT), Titer [11]: 54 | neutralizing activity (RFFIT) [12]: 0.43 IU/mL and 2160 IU/mg | neutralizing activity (RFFIT), Titer [12]: 54 | neutralizing activity (RFFIT) [13]: 2.3 IU/mL and 2290 IU/mg | neutralizing activity (RFFIT), Titer [13]: 320 | neutralizing activity (RFFIT) [14]: 0.4 IU/mL and 2000 IU/mg | neutralizing activity (RFFIT), Titer [14]: 54 | neutralizing activity (RFFIT) [15]: 0.6 IU/mL and 3000 IU/mg | neutralizing activity (RFFIT), Titer [15]: 54 | neutralizing activity (RFFIT) [16]: 1.85 IU/mL and 9260 IU/mg | neutralizing activity (RFFIT), Titer [16]: 50 | neutralizing activity (RFFIT) [17]: 2.7 IU/mL and 2720 IU/mg | neutralizing activity (RFFIT), Titer [17]: 340 | neutralizing activity (RFFIT) [18]: 0.51 IU/mL and 2530 IU/mg | neutralizing activity (RFFIT), Titer [18]: 19 | neutralizing activity (RFFIT) [19]: 2 IU/mL and 10000 IU/mg | neutralizing activity (RFFIT), Titer [19]: 56 | neutralizing activity (RFFIT) [20]: 0.41 IU/mL and 2070 IU/mg | neutralizing activity (RFFIT), Titer [20]: 56 | neutralizing activity (RFFIT) [21]: 0.52 IU/mL and 2620 IU/mg | neutralizing activity (RFFIT), Titer [21]: 11 | neutralizing activity (RFFIT) [22]: 2.24 IU/mL and 2240 IU/mg | neutralizing activity (RFFIT), Titer [22]: 280 | neutralizing activity (RFFIT) [23]: 0.39 IU/mL and 1960 IU/mg | neutralizing activity (RFFIT), Titer [23]: 11 | neutralizing activity (RFFIT) [24]: 1.64 IU/mL and 8210 IU/mg | neutralizing activity (RFFIT), Titer [24]: 230 | neutralizing activity (RFFIT) [25]: 2.5 IU/mL and 2500 IU/mg | neutralizing activity (RFFIT), Titer [25]: 250 | neutralizing activity (RFFIT) [26]: 0.36 IU/mL and 1790 IU/mg | neutralizing activity (RFFIT), Titer [26]: 50 | neutralizing activity (RFFIT) [27]: 2.2 IU/mL and 2160 IU/mg | neutralizing activity (RFFIT), Titer [27]: 270
